In patent publication US20140004106A1:

Tests used:
[1] = target: 28mer peptide of the CXCR5 antigen; assay: Ag-ELISA; DS in PBS, 25°C, 1 month
[2] = target: 28mer peptide of the CXCR5 antigen; assay: Antigen-ELISA; standard run with LA_09_004_8
[3] = target: 28mer peptide of the CXCR5 antigen; assay: Antigen-ELISA; PBS 155 mM, 1 h purged with N2, 24 h
[4] = target: 28mer peptide of the CXCR5 antigen; assay: Antigen-ELISA; PB 10 mM pH 6.50, T0
[5] = target: 28mer peptide of the CXCR5 antigen; assay: Antigen-ELISA; Citrate 10 mM pH 5.00, T0
[6] = target: 28mer peptide of the CXCR5 antigen; assay: Antigen-ELISA; standard run with LA_09_004_6
[7] = target: 28mer peptide of the CXCR5 antigen; assay: Antigen-ELISA; Succinate 10 mM pH 5.00, T0
[8] = target: 28mer peptide of the CXCR5 antigen; assay: ELISA potency (binding); 100 mg/mL, Glycine (20) + NaCl (2), T zero
[9] = target: 28mer peptide of the CXCR5 antigen; assay: Antigen-ELISA; standard run with LA_09_29A, T0
[10] = target: 28mer peptide of the CXCR5 antigen; assay: Antigen-ELISA; standard run with LA_09_27A, T0
[11] = target: 28mer peptide of the CXCR5 antigen; assay: Antigen-ELISA; Citrate 10 mM pH 7.00, after 1 week at +40°C
[12] = target: 28mer peptide of the CXCR5 antigen; assay: Antigen-ELISA; Citrate 10 mM pH 6.00, after mechanical stress 350 rpm 2.5 h
[13] = target: 28mer peptide of the CXCR5 antigen; assay: Antigen-ELISA; standard run with LA 09_004_9
[14] = target: 28mer peptide of the CXCR5 antigen; assay: Antigen-ELISA; Arginine 10 mM pH 8, after 1 week at +40°C
[15] = target: 28mer peptide of the CXCR5 antigen; assay: Antigen-ELISA; TRIS 10 mM pH 8.5, after 1 week at +40°C
[16] = target: 28mer peptide of the CXCR5 antigen; assay: Antigen-ELISA; acetate 10 mM prototype B, T0
[17] = target: 28mer peptide of the CXCR5 antigen; assay: Antigen-ELISA; PB 5 mM pH 7.50, after 1 week at +40°C
[18] = target: 28mer peptide of the CXCR5 antigen; assay: Antigen-ELISA; citrate 10 mM prototype D, T0
[19] = target: 28mer peptide of the CXCR5 antigen; assay: Antigen-ELISA; standard run with LA_09_004_7
[20] = target: 28mer peptide of the CXCR5 antigen; assay: Antigen-ELISA; PB 10 mM pH 7.00, T0
[21] = target: 28mer peptide of the CXCR5 antigen; assay: Antigen-ELISA; PB 10 mM pH 7.50, after mechanical stress 350 rpm 2.5 h
[22] = target: 28mer peptide of the CXCR5 antigen; assay: Antigen-ELISA; PBS 155 mM, 1 h purged with air, 24 h
[23] = target: 28mer peptide of the CXCR5 antigen; assay: Antigen-ELISA; standard run with LA_09_004_3
[24] = target: 28mer peptide of the CXCR5 antigen; assay: Antigen-ELISA; citrate 10 mM prototype B, T0
[25] = target: 28mer peptide of the CXCR5 antigen; assay: Antigen-ELISA; acetate 10 mM prototype A, T0
[26] = target: 28mer peptide of the CXCR5 antigen; assay: Antigen-ELISA; PBS 155 mM pH 7.00, after 1 week at +40°C
[27] = target: 28mer peptide of the CXCR5 antigen; assay: Antigen-ELISA; PB 5 mM pH 7.00, T0
[28] = target: 28mer peptide of the CXCR5 antigen; assay: ELISA potency (binding); 100 mg/mL, Lysine (30) + Mannitol (15), T zero
[29] = target: 28mer peptide of the CXCR5 antigen; assay: Potency (Antigen ELISA); stored +5°C, 9 months
[30] = target: 28mer peptide of the CXCR5 antigen; assay: Antigen-ELISA; Histidine 10 mM pH 6, T0
[31] = target: 28mer peptide of the CXCR5 antigen; assay: Antigen-ELISA; Citrate 10 mM pH 6.00, after 1 week at +40°C
[32] = target: 28mer peptide of the CXCR5 antigen; assay: Antigen-ELISA; Succinate 10 mM pH 5.00, after 1 week at +40°C
[33] = target: 28mer peptide of the CXCR5 antigen; assay: Antigen-ELISA; Citrate 10 mM pH 6.00, T0
[34] = target: 28mer peptide of the CXCR5 antigen; assay: ELISA potency (binding); 100 mg/mL, Sucrose (60) + NaCl (2), T zero
[35] = target: 28mer peptide of the CXCR5 antigen; assay: ELISA potency (binding); 100 mg/mL, Sucrose (60) + NaCl (2), 7 days at 40°C
[36] = target: 28mer peptide of the CXCR5 antigen; assay: Antigen-ELISA; standard run with LA_09_004_1
[37] = target: 28mer peptide of the CXCR5 antigen; assay: Antigen-ELISA; PBS 155 mM pH 7.00, T0
[38] = target: 28mer peptide of the CXCR5 antigen; assay: Antigen-ELISA; Citrate 10 mM pH 7.00, T0
[39] = target: 28mer peptide of the CXCR5 antigen; assay: Antigen-ELISA; Citrate 10 mM pH 5.50, after mechanical stress 350 rpm 2.5 h
[40] = target: 28mer peptide of the CXCR5 antigen; assay: Antigen-ELISA; PBS 155 mM, clear glass type I + V2A piece, 24 h
[41] = target: 28mer peptide of the CXCR5 antigen; assay: Potency (Antigen ELISA); stored +25°C, initial
[42] = target: 28mer peptide of the CXCR5 antigen; assay: Potency (Antigen ELISA); stored -20°C, 12 months
[43] = target: 28mer peptide of the CXCR5 antigen; assay: ELISA potency (binding); 100 mg/mL, Glycine (20), 7 days at 40°C
[44] = target: 28mer peptide of the CXCR5 antigen; assay: Antigen-ELISA; PBS 155 mM, polyethylene high density, 24 h +40°C

B1: Lead CXCR5 Antibody (humanized IgG4 anti-CXCR5 antibody) (antibody, V domains shown)
VH: QVQLKESGPGLVAPSESLSITCTVSGFSLIDYGVNWIRQPPGKGLEWLGVIWGDGTTYYNPSLKSRLSISKDNSKSQVFLKVTSLTTDDTAMYYCARIVYWGQGTLVTVSA
VL: DIVMTQAAPSVAVTPGASVSISCRSSKSLLHSSGKTYLYWFLQRPGQSPQLLIYRLSSLASGVPDRFSGSGSGTAFTLRISRVEAEDVGVYYCMQHLEYPYTFGGGTKLEIKR
- EC50 % [1]: 106%
- EC50 % [2]: 100%
- EC50 % [3]: 89.3%
- EC50 % [4]: 105%
- EC50 % [5]: 79%
- EC50 % [6]: 100%
- EC50 % [7]: 124%
- rel. potency [%] [8]: 174%
- EC50 % [9]: 100%
- EC50 % [10]: 100%
- EC50 % [11]: 111%
- EC50 % [12]: 136%
- EC50 % [13]: 100%
- EC50 % [14]: 88%
- EC50 % [15]: 237%
- EC50 % [16]: 112%
- EC50 % [17]: 141%
- EC50 % [18]: 94%
- EC50 % [19]: 100%
- EC50 % [20]: 145%
- EC50 % [21]: 60.9%
- EC50 % [22]: 84.3%
- EC50 % [23]: 100%
- EC50 % [24]: 104%
- EC50 % [25]: 112%
- EC50 % [26]: 97%
- EC50 % [27]: 68%
- rel. potency [%] [28]: 88%
- EC50 value (in comparison to reference) [29]: 92%
- EC50 % [30]: 184%
- EC50 % [31]: 98%
- EC50 % [32]: 157%
- EC50 % [33]: 52%
- rel. potency [%] [34]: 165%
- rel. potency [%] [35]: 188%
- EC50 % [36]: 100%
- EC50 % [37]: 74%
- EC50 % [38]: 59.9%
- EC50 % [39]: 79%
- EC50 % [40]: 80.8%
- EC50 value (in comparison to reference) [41]: 75%
- EC50 value (in comparison to reference) [42]: 96%
- rel. potency [%] [43]: 180%
- EC50 % [44]: 157%
